# In patent US20080102065A1 (published 2008):
# T1: mouse EpoR (muEpoR) (mouse, UniProt P14753 25-249, limits assumed)
# T1 sequence (looked up): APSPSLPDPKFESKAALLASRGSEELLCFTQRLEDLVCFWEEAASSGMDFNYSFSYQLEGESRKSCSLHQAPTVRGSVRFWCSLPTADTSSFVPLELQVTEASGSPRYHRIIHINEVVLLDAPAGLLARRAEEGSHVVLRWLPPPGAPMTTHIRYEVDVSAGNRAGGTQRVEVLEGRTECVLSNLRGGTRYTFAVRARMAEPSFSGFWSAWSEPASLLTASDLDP
# T2: huEpoR protein (soluble human erythropoietin receptor) (human, UniProt P19235 25-250, limits assumed)
# T2 construct: also called soluble huEpoR; biotinylated huEpoR
# T2 sequence (looked up): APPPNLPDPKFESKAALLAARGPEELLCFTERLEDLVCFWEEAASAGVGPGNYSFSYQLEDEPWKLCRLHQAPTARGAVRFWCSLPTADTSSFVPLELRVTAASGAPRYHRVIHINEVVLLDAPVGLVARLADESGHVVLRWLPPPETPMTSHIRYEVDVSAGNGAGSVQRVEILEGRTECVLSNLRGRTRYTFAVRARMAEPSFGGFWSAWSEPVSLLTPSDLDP
# T3: cynomolgus monkey EpoR (cynoEpoR) (cynomolgus monkey, UniProt A0A2K5WKK4 25-250)
# T3 construct: Soluble protein (coated in ELISA, analyte in SPR)
# T3 sequence: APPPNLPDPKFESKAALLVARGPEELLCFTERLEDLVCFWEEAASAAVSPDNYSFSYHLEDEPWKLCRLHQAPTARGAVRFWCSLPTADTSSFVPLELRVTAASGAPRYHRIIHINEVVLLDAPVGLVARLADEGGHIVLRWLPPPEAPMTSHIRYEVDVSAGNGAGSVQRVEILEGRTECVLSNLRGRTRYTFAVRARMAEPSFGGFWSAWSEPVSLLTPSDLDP
# T4: huEpoR expressed on the cell surface (UT-7 cells) (human, UniProt P19235 25-508)
# T4 sequence (looked up): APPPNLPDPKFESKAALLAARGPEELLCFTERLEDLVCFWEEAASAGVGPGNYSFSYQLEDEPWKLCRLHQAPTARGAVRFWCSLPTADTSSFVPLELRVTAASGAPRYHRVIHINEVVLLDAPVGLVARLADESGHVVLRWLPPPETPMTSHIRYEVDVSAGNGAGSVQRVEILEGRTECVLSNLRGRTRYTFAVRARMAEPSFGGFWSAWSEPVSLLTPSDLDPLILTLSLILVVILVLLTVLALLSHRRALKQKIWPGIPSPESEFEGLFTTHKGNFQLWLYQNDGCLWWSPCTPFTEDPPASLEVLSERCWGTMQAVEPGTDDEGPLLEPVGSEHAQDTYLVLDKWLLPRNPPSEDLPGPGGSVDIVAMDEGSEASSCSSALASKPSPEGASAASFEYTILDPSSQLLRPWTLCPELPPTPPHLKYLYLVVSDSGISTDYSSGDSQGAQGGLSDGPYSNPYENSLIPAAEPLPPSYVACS
# T5: biotinylated mouse EpoR-Fc protein (muEpoR-Fc) (mouse, UniProt P14753 25-249, limits assumed, biotinylated)
# T5 construct: also called mouse EpoR (muEpoR); not shown: Fc part
# T5 sequence (looked up): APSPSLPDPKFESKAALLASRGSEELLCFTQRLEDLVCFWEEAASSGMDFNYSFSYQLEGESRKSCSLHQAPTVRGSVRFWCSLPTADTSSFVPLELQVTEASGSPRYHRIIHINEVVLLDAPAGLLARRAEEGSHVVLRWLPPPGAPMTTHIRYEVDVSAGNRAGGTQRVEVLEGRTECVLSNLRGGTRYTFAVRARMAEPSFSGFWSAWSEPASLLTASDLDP
# Tests used:
# mouse EpoR (muEpoR) = biological target: T1, mouse EpoR (muEpoR); test: ELISA on coated muEpoR, scFv-Fc at 5 µg/ml (Example 17)
# Experimental: The cross reactivity of certain clones in scFv-Fc format was tested using an ELISA Assay. […] 100 μl of 1 μg/ml (in 50 mM NaHCO3, pH8.5) cynoEpoR or muEpoR was added to each well on a polysorp ELISA plate and incubated at 4° C. overnight. After blocking the wells with 4% milk/PBS/0.1% Tween20 for 1 hour at room temperature, plates were washed three times with PBS/0.1% Tween20. 100 μl of 5 μg/ml scFv-Fc was added to each well and incubated for 1 hour at 25° C. […] ABTS (2,2′-azino-bis(3-ethylbenzthiazoline-6-sulfonic acid)) was used as a substrate and the absorption was measured at 405 nm on a plate reader.
# [1] = biological target: T2, huEpoR protein (soluble human …); test: SPR, Biacore T100; scFv-Fc captured on anti-human IgG Fc CM5 chip, EpoR as analyte; 1:1 fit;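 note: measured at 25 °C in HBS-EP buffer with 0.1 mg/ml BSA, flowed at 50 µl/min, 1 min association then dissociation (10 min human, 5 min cyno EpoR)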
# Experimental: (§1) Surface plasmon resonance experiments were conducted at 25° C. using a Biacore T100 instrument (Biacore AB, Uppsala, Sweden) equipped with a CM5 sensor chip. Each flow cell on the CM5 chips was activated with a 1:1 (v/v) mixture of 0.1 M N-hydroxysuccinimide (NHS) and 0.4 M1-ethyl-3-(3-dimethylaminopropyl) carbodiimide hydrochloride (EDC). Fcγ Fragment Specific AffiniPure Goat Anti-Human IgG antibody at 30 μg/ml in 10 mM sodium acetate, pH 5.0 was immobilized to two flow cells on the CM5 chips using standard amine coupling chemistry with a target level of 10,000 Resonance Units (RU). Residual reactive surfaces were deactivated with an injection of 1 M ethanolamine. The running buffer was then switched to HBS-EP+0.1 mg/ml BSA for all remaining steps.
# (§2) For each scFv-Fc protein to be tested, the scFv-Fc protein was diluted in running buffer to 200 ng/ml and injected over the test flow cell at 10 μl/min for 2 minutes to capture the maxibody. […] A flow rate of 50 μl/min was used and a 1 minute association phase followed by a 5 minute (for cyno EpoR) or 10 minute (for hu EpoR) dissociation phase. After each cycle the surfaces were regenerated with a 30 second injection of 10 mM glycine pH 1.5. Fresh scFv-Fc protein was then captured on the test flow cell to prepare for the next cycle.
# [2] = biological target: T3, cynomolgus monkey EpoR (cynoEpoR); test: as above
# Experimental: as §1, §2
# [3] = biological target: T4, huEpoR expressed on the cell surface …; test: cell-based or functional assay
# [4] = biological target: T5, biotinylated mouse EpoR-Fc protein …; test: ELISA, antibody coated at 1 µg/ml, biotinylated muEpoR-Fc at 5 µg/ml, streptavidin-HRP
# Experimental: Individual scFv-Fc proteins or IgG₂ proteins (100 μl of a 1 μg/ml antibody stock in 50 mM NaHCO₃, pH8.5) were added to each well on a Nunc-Immuno Polysorp ELISA plate (Nalge Nunc International) such that each well comprised only a single clone. The plate was incubated at 4° C. overnight. After blocking the wells with 4% milk/PBS/0.1% tween 20 for 1 hour at room temperature, plates were washed three times with PBS/0.1% tween 20. 100 μl of 5 μg/ml biotinylated muEpoR-Fc protein was added to each well and incubated for 1 hour at 25° C. […] 2,2′-azino-bis(3-ethylbenzthiazoline-6-sulphonic acid) (ABTS) was used as a substrate and the absorption was measured at 405 nm on a plate reader.
Binder,binding result (mouse EpoR (muEpoR)),Kd [1] [nM],koff [1] [s⁻¹],kon [1] [M⁻¹ s⁻¹],Kd [2] [nM],koff [2] [s⁻¹],kon [2] [M⁻¹ s⁻¹],"Average EC50 (nM), UT-7-luciferase (STAT5 reporter) assay [3] [nM]","Ratio (EC50 of Epo / EC50 of the scFv-Fc), UT-7-luciferase assay [3]",binding result [4]
"Mxb 16 (clone 16 scFv-Fc protein) (Fc fusion, Tested as scFv-Fc (maxibody) with an Fc derived from human IgG1) VH: QVQLQESGPGLVKPSETLSLTCTVSGGYINNYYWSWIRQPPGKGLEWIGYIHYSGSTYYNPSLKSRVTISEDTSKNQFSLKLSSATAADTAVYYCARVGYYYDSSGYNLAWYFDLWGRGTLVTVSA VL: SSELTQDPAVSVALGQTVRITCQGDNLRSYSATWYQQKPGQAPVLVLFGENNRPSGIPDRFSGSKSGDTAVLTITGTQTQDEADYYCTSRVNSGNHLGVFGPGTQLTVL",no binding (tested: 5 µg/ml),2190,0.142,65000,4360,0.283,65000,–,–,–
"Mxb 319 (clone 319 scFv-Fc protein) (Fc fusion, Tested as scFv-Fc (maxibody) with an Fc derived from human IgG1) VH: QVQLVQSGAEIKKPGASVKVSCKTFGSPFSTNDIHWVRQAPGQGLEWMGIIDTSGAMTRYAQKFQGRVTVTRETSTSTVYMELSSLKSEDTAVYYCAREGCTNGVCYDNGFDIWGQGTLVTVSS VL: DIQMTQSPSTLSASIGDRVTITCRASEGIYHWLAWYQQKPGKAPKLLIYKASSLASGAPSRFSGSGSGTDFTLTISSLQPDDFATYYCQQYSNYPLTFGGGTKLEIK",no binding (tested: 5 µg/ml),212,0.0335,158000,121,0.0258,213000,5.87,0.002,–
"Mxb 307 (clone 307 scFv-Fc protein) (Fc fusion, Tested as scFv-Fc (maxibody) with an Fc derived from human IgG1) VH: EVQLVESGGGLVQPGGSLRLSCAVSGFTFSKYWMTWVRQAPGKGLEWVANIKPDGSEKYYVESVKGRFTISRDNAKNSVYLQMNSVRAEDTAVYYCARVSRGGSFSDWGQGTMVTVSS VL: QSVLTQPPSASGSPGQSVTISCTGTSSDVGGYNYVSWYQQHPDKAPRLMIYDVNKRPSGVPDRFSGSKSGNTASLTVSGLQAEDEAHYYCNSYAGSNNWVFGGGTQLTVL",no binding (tested: 5 µg/ml),108,0.246,2.28e+06,1210,0.361,299000,0.381,0.025,–
"clone 5 IgG2 protein (antibody, V domains shown, Human IgG2 (VH in an IgG2 heavy chain expression vector; light chain constant type matches the variable light chain isotype); also called IgG2 5; IgG25) VH: EVQLVESGGGLVQPGGSLRLSCAASGFTFSSYWMSWVRQAPGKGLEWVANIKPDGSEKYYVDSVKGRFTISRDNAKNSVYLQMNSLRAEDTAVYYCARVSRGGSYSDWGQGTLVTVSS VL: QSALTQPASVSGSPGQSITISCTGTSSDVGGYIYVSWYQQHPGKAPKLMIYDVSRRPSGISDRFSGSKSGNTASLTISGLQAEDEADYYCNSYTTLSTWLFGGGTKVTVL",–,–,–,–,–,–,–,–,–,binds
"clone 7 IgG2 protein (antibody, V domains shown, Human IgG2 (VH in an IgG2 heavy chain expression vector; light chain constant type matches the variable light chain isotype)) VH: EVQLVQSGGGLVQPGGSLRLSCAASGFTFSSYWMSWVRQAPGKGLEWVANIKPDGSEKYYVDSVKGRFTISRDNAKNSVYLQMNSLRAEDTAVYYCARVSRGGSYSDWGKGTLVTVSS VL: QSALTQPASVSGSPGQSIIISCTGTRSDIGGYNYVSWYQHHPGRAPKLIIFDVNNRPSGVSHRFSGSKSGNTASLTISGLQAEDEADYYCNSFTDSRTWLFGGGTKLTVL",–,–,–,–,–,–,–,–,–,binds
"Mxb 330 (clone 330 scFv-Fc protein) (Fc fusion, Tested as scFv-Fc (maxibody) with an Fc derived from human IgG1) VH: EVQLVESGGGLVQPGGSLRLSCAVSGFTFSKYWMTWVRQAPGKGLEWVANIKPDGSEKYYVESVKGRFTISRDNAKNSVYLQMNSVRAEDTAVYYCARVSRGGSFSDWGQGTLVTVSS VL: QSALTQPPSASGSPGQSVTISCTGTSSDVGAYNYVSWYQQHPGKAPKLMIYEVARRPSGVPDRFSGSKSGNTASLTVSGLQAEDEADYYCSSYAGSNNFAVFGRGTKLTVL",no binding (tested: 5 µg/ml),45.4,0.0373,822000,890,0.0965,108000,0.0075,1.28,–
"clone 2 IgG2 protein (antibody, V domains shown, Human IgG2 (VH in an IgG2 heavy chain expression vector; light chain constant type matches the variable light chain isotype); also called IgG2 2; IgG22) VH: EVQLVQSGGGLVQPGGSLRLSCAASGFTFSSYWMSWVRQAPGKGLEWVANIKPDGSEKYYVDSVKGRFTISRDNAKNSVYLQMNSLRAEDTAVYYCARVSRGGSYSDWGQGTLVTVSS VL: QSVLTQPPSASGSPGQSVTISCTGTSSDVGGYNYVSWYQQHPGKAPKLMIYEVSKRPSGVPDRFSGSKSGNTASLTVSGLQPEDEADYYCSSYAGRNWVFGGGTQLTVL",–,–,–,–,–,–,–,–,–,binds
"Mxb 15 (clone 15 scFv-Fc protein) (Fc fusion, Tested as scFv-Fc (maxibody) with an Fc derived from human IgG1) VH: QVQLQESGPGLVRPSGTLSLTCAVSGGSIGSSNWWSWVRQAPGKGLEWIGEISQSGSTNYNPSLKGRVTISLDRSRNQLSLKLSSVTAADTAVYYCARQLRSIDAFDIWGPGTTVTVSA VL: SYVLTQPPSVSVSPGLTATITCSGDKLGDKYASWYQQKPGQSPVLVIYQDRKRPSGIPERFSGSNSGNTATLTISGTQAVDEADYYCQAWDSDTSYVFGTGTQLTVL",no binding (tested: 5 µg/ml),1950,0.119,61000,3130,0.115,37000,2.8,0.003,–
"Mxb 13 (clone 13 scFv-Fc protein) (Fc fusion, Tested as scFv-Fc (maxibody) with an Fc derived from human IgG1) VH: QVQLQQSGGGVVQPGRSLRLSCAASGFTFSDYAMHWVRQAPGKGLEWVAVISNHGKSTYYADSVKGRFTISRDNSKHMLYLQMNSLRADDTALYYCARDIALAGDYWGQGTLVTVSA VL: DIQMTQSPSSLSASVGDRVTITCRASQSISSYLNWYQQLPGKVPKLLIYGASKLQSGVPSRFSGSGSGTDFTLTISSLQPEDFATYYCLQDYNYPLTFGPGTRLEIK",no binding (tested: 5 µg/ml),1040,0.0568,55000,920,0.0597,65000,4.03,0.002,–
"Mxb 295 (clone 295 scFv-Fc protein) (Fc fusion, Tested as scFv-Fc (maxibody) with an Fc derived from human IgG1) VH: EVQLVESGGGLVQPGGSLRLSCAASGFTFSSYAMSWVRQAPGKGLEWVSGISGSGSSEGGTYYADSVKGRFTLSRDNSKNTLYLQMNSLRAEDTALYYCVKDRPSRYSFGYYFDYWGRGTLVTVSS VL: LPVLTQPPSVSVSPGQTASIACSGNKLGDKYVSWYQQKPGQSPLLVIYQDTKRPSGIPERFSGSNSGNTATLTISGTQAMDEADYYCQAWDSSTDVVFGGGTKLTVL",no binding (tested: 5 µg/ml),163,0.00296,18000,539,0.0221,41000,0.607,0.016,–
